Experimental data: patent US20210253718A1, “FRIZZLED5 PROTEIN-BINDING AGENTS” (Modmab Therapeutics Corporation, priority 2016, published 2021)
Numbering of substitutions follows the chain as printed.

T1: FZD9 CRD (Homo sapiens, UniProt O00144)
T1 construct: G35-A161; GPI anchor signal (C); expressed in transfected cells; host or cells: CHO cells, lentiviral pLenti-puro
T1 sequence (O00144 35-161): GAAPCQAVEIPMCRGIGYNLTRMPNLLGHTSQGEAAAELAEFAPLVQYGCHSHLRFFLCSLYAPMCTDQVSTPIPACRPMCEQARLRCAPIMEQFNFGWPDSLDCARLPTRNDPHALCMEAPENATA

T2: FZD4 CRD (Homo sapiens, UniProt Q9ULV1)
T2 construct: E42-V167; GPI anchor signal (C); expressed in transfected cells; host or cells: CHO cells, lentiviral pLenti-puro
T2 sequence (Q9ULV1 42-167): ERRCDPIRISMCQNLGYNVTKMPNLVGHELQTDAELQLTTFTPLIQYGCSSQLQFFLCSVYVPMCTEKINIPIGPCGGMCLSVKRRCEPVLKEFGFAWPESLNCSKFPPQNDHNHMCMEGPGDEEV

T3: FZD6 CRD (Homo sapiens, UniProt O60353)
T3 construct: S20-P146; GPI anchor signal (C); expressed in transfected cells; host or cells: CHO cells, lentiviral pLenti-puro
T3 sequence (O60353 20-146): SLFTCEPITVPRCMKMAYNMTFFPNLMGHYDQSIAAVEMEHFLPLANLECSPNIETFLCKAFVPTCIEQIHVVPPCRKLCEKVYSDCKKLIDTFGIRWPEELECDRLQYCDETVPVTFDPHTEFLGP

T4: FZD10 CRD (Homo sapiens, UniProt Q9ULW2)
T4 construct: 30-156; GPI anchor signal (C); expressed in transfected cells; host or cells: CHO cells, lentiviral pLenti-puro
T4 sequence (Q9ULW2 30-156): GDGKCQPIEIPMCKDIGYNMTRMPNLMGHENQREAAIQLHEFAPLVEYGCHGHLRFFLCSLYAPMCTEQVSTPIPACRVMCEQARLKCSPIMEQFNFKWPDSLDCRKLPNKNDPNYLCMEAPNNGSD

T5: FZD5 CRD (Homo sapiens, UniProt Q13467)
T5 construct: K29-T156; GPI anchor signal (C); expressed in transfected cells; host or cells: CHO cells, lentiviral pLenti-puro
T5 sequence (Q13467 29-156): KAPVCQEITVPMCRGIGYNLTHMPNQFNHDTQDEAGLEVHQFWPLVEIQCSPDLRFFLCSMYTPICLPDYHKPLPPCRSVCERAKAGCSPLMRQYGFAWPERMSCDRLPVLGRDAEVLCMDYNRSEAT

B1: Fab-2912: anti-FZD5 Fab with antibody variable region Fv-2912; CDR SEQ ID NOs: 35, 36, 51, 90, 127, 164 (antibody, V domains shown)
VH: EVQLVESGGGLVQPGGSLRLSCAASGFNISYSYIHWVRQAPGKGLEWVASISSSSGYTSYADSVKGRFTISADTSKNTAYLQMNSLRAEDTAVYYCARTVRGSKKPYFSGWAMDYWGQGTLVTVSS
VL: DIQMTQSPSSLSASVGDRVTITCRASQSVSSAVAWYQQKPGKAPKLLIYSASSLYSGVPSRFSGSRSGTDFTLTISSLQPEDFATYYCQQFYFPYLITFGQGTKVEIK
B2: Fab-2913: anti-FZD5 Fab with antibody variable region Fv-2913; CDR SEQ ID NOs: 35, 36, 52, 91, 128, 165 (antibody, V domains shown)
VH: EVQLVESGGGLVQPGGSLRLSCAASGFNISYSSIHWVRQAPGKGLEWVASIYPYSSSTSYADSVKGRFTISADTSKNTAYLQMNSLRAEDTAVYYCARYGYYGLDYWGQGTLVTVSS
VL: DIQMTQSPSSLSASVGDRVTITCRASQSVSSAVAWYQQKPGKAPKLLIYSASSLYSGVPSRFSGSRSGTDFTLTISSLQPEDFATYYCQQWGVSHYLFTFGQGTKVEIK
B3: Fab-2914: anti-FZD5 Fab with antibody variable region Fv-2914; CDR SEQ ID NOs: 35, 36, 53, 92, 129, 162 (antibody, V domains shown)
VH: EVQLVESGGGLVQPGGSLRLSCAASGFNIYYSYMHWVRQAPGKGLEWVASIYPSSSSTSYADSVKGRFTISADTSKNTAYLQMNSLRAEDTAVYYCARGAMDYWGQGTLVTVSS
VL: B1 VL with F91W, F93Y, P94G, Y95S

System: PATU8988S cells
Assay: Effect of anti-FZD5 Fabs on proliferation of pancreatic cancer cell lines (percent growth inhibition)
Assay type: cell-based, human
Settings: Fab 2 μg/ml

Row | Molecule | percent growth inhibition, PATU8988s 2 μg/ml
1 | B1 | 1.11%
2 | B2 | −15.09%
3 | B3 | −15.14%

System: RWP1 cells
Assay: as above
Assay type: cell-based, human
Settings: Fab 2 μg/ml

Row | Molecule | percent growth inhibition, RWP1 2 μg/ml
4 | B1 | 15.55%
5 | B2 | 59.79%
6 | B3 | 68.03%

System: ASPC-1 cells
Assay: as above
Assay type: cell-based, human
Settings: Fab 2 μg/ml

Row | Molecule | percent growth inhibition, ASPC-1 2 μg/ml
7 | B1 | 6.93%
8 | B2 | 2.25%
9 | B3 | 16.76%

System: CHO cells not expressing Frizzled CRD
Assay: Flow cytometry of anti-FZD5 Fab binding to CHO cells not expressing Frizzled CRD (background)
Settings: not given
Excerpt: The binding of anti-FZD5 Fabs to cell surface-expressed Frizzled protein was further determined for each member of the Frizzled family via flow cytometry and immunofluorescence analysis of a panel of 10 CHO cell lines, each ectopically over-expressing the extracellular cysteine-rich domain (CRD) of a different Frizzled protein family member.

Row | Molecule | Median fluorescence, Frizzled CRD overexpressed on CHO cells: None
10 | B1 | 4.49
11 | B2 | 3.85
12 | B3 | 4.37

Target: T1, FZD9 CRD
Assay: Immunofluorescence of anti-FZD5 Fab binding to CHO cells overexpressing Frizzled CRD
Set-up: key: −: no binding; +: very weak binder; ++: weak binder; +++: good binder; ++++: very good binder
Settings: not given
Method in brief: (§1)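 CHO lines each stably expressing one human Frizzled CRD as a myc-tagged, GPI-anchored cell-surface cassette (FZD_CRD-MYC-GPI, lentiviral pLenti-puro) were probed with anti-FZD5 Fabs. Binding was read by immunofluorescence, alongside flow cytometry, across the 10-member panel.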

Row | Molecule | Immunofluorescence binding, Frizzled CRD overexpressed on CHO cells: FZD9
13 | B1 | −
14 | B2 | −
15 | B3 | −

Target: T2, FZD4 CRD
Assay: as above
Set-up: key: −: no binding; +: very weak binder; ++: weak binder; +++: good binder; ++++: very good binder
Settings: not given
Method in brief: as §1

Row | Molecule | Immunofluorescence binding, Frizzled CRD overexpressed on CHO cells: FZD4
16 | B1 | ++
17 | B2 | −
18 | B3 | −

Target: T3, FZD6 CRD
Assay: as above
Set-up: key: −: no binding; +: very weak binder; ++: weak binder; +++: good binder; ++++: very good binder
Settings: not given
Method in brief: as §1

Row | Molecule | Immunofluorescence binding, Frizzled CRD overexpressed on CHO cells: FZD6
19 | B1 | −
20 | B2 | −
21 | B3 | −

Target: T6, FZD2 CRD (Homo sapiens, UniProt Q14332)
T6 construct: D35-P161; GPI anchor signal (C); expressed in transfected cells; host or cells: CHO cells, lentiviral pLenti-puro
Assay: as above
Set-up: key: −: no binding; +: very weak binder; ++: weak binder; +++: good binder; ++++: very good binder
Settings: not given
Method in brief: as §1

Row | Molecule | Immunofluorescence binding, Frizzled CRD overexpressed on CHO cells: FZD2
22 | B1 | +++
23 | B2 | +++
24 | B3 | +++

Target: T4, FZD10 CRD
Assay: as above
Set-up: key: −: no binding; +: very weak binder; ++: weak binder; +++: good binder; ++++: very good binder
Settings: not given
Method in brief: as §1

Row | Molecule | Immunofluorescence binding, Frizzled CRD overexpressed on CHO cells: FZD10
25 | B1 | −
26 | B2 | −
27 | B3 | −

Target: T5, FZD5 CRD
Assay: as above
Set-up: key: −: no binding; +: very weak binder; ++: weak binder; +++: good binder; ++++: very good binder
Settings: not given
Method in brief: as §1

Row | Molecule | Immunofluorescence binding, Frizzled CRD overexpressed on CHO cells: FZD5
28 | B1 | +++
29 | B2 | ++
30 | B3 | ++++
